These are literature values, as cited in paper PMC4965143.

Read-outs that look alike come from different tables or passages of the source.

Data set [1] concerns the target PGC-1α coactivator peptide (Homo sapiens) (UniProt Q9UBK2).
The target is the same in data set [2]. The source holds these as a separate data set.

Sequence of UniProt Q9UBK2 (Q9UBK2 whole entry): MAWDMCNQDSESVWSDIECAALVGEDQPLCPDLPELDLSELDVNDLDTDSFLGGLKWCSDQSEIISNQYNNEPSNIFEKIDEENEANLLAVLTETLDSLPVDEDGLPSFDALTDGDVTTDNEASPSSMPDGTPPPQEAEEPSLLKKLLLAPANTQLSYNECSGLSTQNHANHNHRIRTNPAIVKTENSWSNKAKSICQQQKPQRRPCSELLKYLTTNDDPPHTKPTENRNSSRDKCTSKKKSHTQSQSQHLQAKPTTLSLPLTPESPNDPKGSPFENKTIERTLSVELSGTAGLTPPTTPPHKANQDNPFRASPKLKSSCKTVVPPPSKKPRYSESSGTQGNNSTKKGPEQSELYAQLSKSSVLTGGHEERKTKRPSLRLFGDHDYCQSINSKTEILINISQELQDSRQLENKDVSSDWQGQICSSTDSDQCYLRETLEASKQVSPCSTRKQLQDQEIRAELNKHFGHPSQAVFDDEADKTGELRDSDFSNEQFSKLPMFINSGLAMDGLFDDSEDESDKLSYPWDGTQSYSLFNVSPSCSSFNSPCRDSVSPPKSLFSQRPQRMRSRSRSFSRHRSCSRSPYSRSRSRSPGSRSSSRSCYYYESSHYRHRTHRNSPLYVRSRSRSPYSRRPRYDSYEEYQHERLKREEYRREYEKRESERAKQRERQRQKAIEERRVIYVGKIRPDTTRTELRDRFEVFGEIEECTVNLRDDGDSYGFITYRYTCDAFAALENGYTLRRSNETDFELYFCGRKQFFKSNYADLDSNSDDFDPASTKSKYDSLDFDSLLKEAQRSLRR

In the case of SF-1 LBD (from UniProt Q13285), the Kd in data set [1] was 6 µM; in data set [2], 8.5 µM.
